Measured values from patent US20160145343A1 (UNIVERSITY OF PITTSBURGH OF THE COMMONWEALTH SYSTEM OF …, published 2016).
Changes are numbered by the printed parent chain.

B1: M7 (antibody, human IgG1, kappa, V domains shown)
VH: EVQLVESGGGLVQPGGSLRLSCAASGFTVSSNYMSWVRQAPGKGLEWVSVIYSGGSTYYADSVKGRFTISRDNSKNTLYLQMNSLRAEDTAVYYCARGSTNTYYYDSSGHPWGQGTMVTVSS
VL: DIVMTQSPLSLPATPGEPASISCRSSQSLLHSNGYTYLDWYLQKPGQSPQVLIYLASNRASGVPDRFSGSGSGTNFTLKISRVEAEDVGLFYCMQALQTPQTFGQGTKLEIKR
notes: Human IgG
B2: M3 (antibody, human IgG1, lambda, V domains shown)
VH: QLQLQESGPGLVKPSETLSLTCTVSGGSISSSSYYWGWIRQPPGKGLEWIGSIYYSGSTHYNPSLKSRVTISVDTSKNQFSLKLRSVTAADTAVYYCARGVVEVRGNHYYYYYMDVWGKGTTVTVSS
VL: QSVLTQPPSVSGAPGQRVTISCTGSSSNIGAGYDVHWYQQLPGTAPKLLIYGNSYRPSGVPDRFSGSKSGTSASLAITGLQAEDEADYYCQSYDSSLSGSGVFGGGTKLTVLG
notes: Human IgG
B3: M22 (antibody, human IgG1, kappa, V domains shown)
VH: EVQLVESGGGLVQPGGSLRLSCAASGFTVSSNYMSWVRQAPGKGLEWVSVIYSGGTTYYADSVKGRFTISRHNSKNTLYLQMNSLRAEDTAVYYCARDHDPDYGGYYMDVWGKGTTVTVSS
VL: DVVMTQSPLSLPVTLGQPASISCRSSQSLVYSDGNTYLNWFQQRPGQSPRRLIYQVSNRDSGVPDRFSGSGSGTDFTLKIGRVEAEDVGVYFCMQGTHWPWTFGQGTKVEIKR
notes: Human IgG
B4: M20 (antibody, human IgG1, kappa, V domains shown)
VH: EVQLVESGGGLVQPGGSLRLSCAASGFTFSSYWMHWVRQAPGKGLVWVSHINSDGSSTSYADSVKGRFTISRDNAKNTLYLQMNSLRAEDTAVYYCARELADWGQGTLVTVSS
VL: B3 VL
notes: Human IgG
B5: M21 (antibody, human IgG1, kappa, V domains shown)
VH: EVQLVESGGGLVQPGGSLRLSCAASGFTVSSNYMSWVRQAPGKGLEWVSVIYSGGSTYYADSVKGRFTISRDNSKNTLYLQMNSLRAEDTAVYYCARDQEHYFDGSGYYVDYWGQGTLVTVSS
VL: B3 VL
notes: Human IgG
B6: M14 (antibody, human IgG1, kappa, V domains shown)
VH: QVQLVESGGGLVKPGGSLRLSCAASGFTFSDYYMSWIRQAPGKGLEWVSYISSSGTTKYYADSVKGRFTISRDNAKNSLYLQMNSLRAEDTAVYYCVRENLGYCSGGSCFYYYYMDVWGKGTTVTVSS
VL: not shown
B7: M16 (antibody, human IgG1, kappa, V domains shown)
VH: B6 VH
VL: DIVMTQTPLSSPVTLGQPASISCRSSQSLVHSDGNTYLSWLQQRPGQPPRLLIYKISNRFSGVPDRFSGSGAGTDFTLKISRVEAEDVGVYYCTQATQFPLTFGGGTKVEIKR
notes: Human IgG
B8: M23 (antibody, human IgG1, kappa, V domains shown)
VH: B6 VH with L101I, S105T, S108N
VL: not shown

What follows are binders tested against T1, MUC1 on MUC1+ human cancer cell lines and tumor tissue (abnormal, e.g. hypoglycosylated, tumor MUC1) (human, UniProt P15941 24-1255) (assay: flow cytometry, MCF-7 cells).
T1 construct: the MUC1 of each cell line or tissue (number of repeats, glycoform) is not specified; The cell line or tissue is named under assay; also called MUC1 on HPAF, MCF-7, BT-20, SKBR-3, PANC-1, MS+MUC1 cells; MUC1 on colon and pancreatic tumor samples
Protocol: (§1) The antibodies were further characterized for their surface binding to MUC1-expressing human cancer cell lines HPAF (pancreatic), MCF-7 (breast), BT-20 (breast), PANC-1 (pancreatic), and MS (breast) cell lines that express very low levels of MUC1 and was transfected with MUC1 cDNA (MS+MUC1). MCF-10A, a human nontransformed mammary epithelial cell line that expresses normal MUC1, was used as a predicted negative control for tumor MUC1 (hypoglycosylated MUC1)-specific staining Cells were grown attached to tissue culture plates, trypsinized, washed with PBS and 1% FBS and stained with each antibody for 30 minutes on ice. Cells were then washed 2 times with PBS and 1% FBS and stained with appropriate allophycocyanin (APC)-labeled secondary antibodies. Cells were washed again 2 times with PBS and 1% FBS and then analyzed by flow cytometry. Thirty-thousand events were collected for each sample and gated for viability by forward and side scatter. Live cells were then gated for APC+ staining as compared to an appropriate secondary antibody only control.
In the case of B1, the “percentage of APC+ stained cells” value is reported as 83.5%.
In the case of B2, the “percentage of APC+ stained cells” value is reported as 79.6%.
For B3, the “percentage of APC+ stained cells” value was 5.68%.
B4 was tested, and the “percentage of APC+ stained cells” value was 29.2%.
For B5, the “percentage of APC+ stained cells” value was 5%.
With B6 the “percentage of APC+ stained cells” value was 20.8%.
With B7 the “percentage of APC+ stained cells” value was 18.3%.
With B8 the “percentage of APC+ stained cells” value was 16.1%.

The binders below were run against T1, MUC1 on MUC1+ human cancer cell lines … (assay: flow cytometry, MS+MUC1 cells).
Protocol: as §1
B1 was tested, and the “percentage of APC+ stained cells” value was 22.4%.
In the case of B2, the “percentage of APC+ stained cells” value is reported as 22%.
B3 was tested, and the “percentage of APC+ stained cells” value was 5.78%.
For B4, the “percentage of APC+ stained cells” value was 6.32%.
For B5, the “percentage of APC+ stained cells” value was 4.41%.
In the case of B6, the “percentage of APC+ stained cells” value is reported as 28.4%.
B7 was tested, and the “percentage of APC+ stained cells” value was 7.03%.
With B8 the “percentage of APC+ stained cells” value was 33.8%.

Each binder was assayed against T1, MUC1 on MUC1+ human cancer cell lines … (assay: flow cytometry, BT20 cells).
Protocol: as §1
For B1, the “percentage of APC+ stained cells” value was 12.2%.
B2 was tested, and the “percentage of APC+ stained cells” value was 14.8%.
With B3 the “percentage of APC+ stained cells” value was 3.39%.
For B4, the “percentage of APC+ stained cells” value was 9.86%.
B5 was tested, and the “percentage of APC+ stained cells” value was 4.06%.
B6 was tested, and the “percentage of APC+ stained cells” value was 22.9%.
For B7, the “percentage of APC+ stained cells” value was 5.17%.
B8 was tested, and the “percentage of APC+ stained cells” value was 23%.

These binders were tested against T1, MUC1 on MUC1+ human cancer cell lines … (assay: immunohistochemistry, colon tissue microarray, benign samples).
Protocol: (§2) Secondary antibodies alone were used as negative controls. Following staining, the microarrays were analyzed using CELLPROFILER cell image analysis software (Broad Institute).
For B6, the “MUC1+ samples stained” value was 2 of 3 MUC1+ benign samples.
With B8 the “MUC1+ samples stained” value was 2 of 3 MUC1+ benign samples.

The binders below were run against T1, MUC1 on MUC1+ human cancer cell lines … (assay: immunohistochemistry, colon tissue microarray, malignant samples).
Protocol: as §2
In the case of B6, the “MUC1+ samples stained” value is reported as 56 of 114 MUC1+ malignant samples.
B8 was tested, and the “MUC1+ samples stained” value was 76 of 114 MUC1+ malignant samples.

These binders were tested against T1, MUC1 on MUC1+ human cancer cell lines … (assay: flow cytometry, PANC-1 cells).
Protocol: as §1
B1 was tested, and the “percentage of APC+ stained cells” value was 0.41%.
With B2 the “percentage of APC+ stained cells” value was 1.55%.
For B3, the “percentage of APC+ stained cells” value was 0.7%.
With B4 the “percentage of APC+ stained cells” value was 0.39%.
In the case of B5, the “percentage of APC+ stained cells” value is reported as 0.75%.
In the case of B6, the “percentage of APC+ stained cells” value is reported as 55.2%.
With B7 the “percentage of APC+ stained cells” value was 0.76%.
B8 was tested, and the “percentage of APC+ stained cells” value was 45.1%.

Each binder was assayed against T1, MUC1 on MUC1+ human cancer cell lines … (assay: flow cytometry, SKBR-3 cells).
Protocol: as §1
For B1, the “percentage of APC+ stained cells” value was 1.65%.
For B2, the “percentage of APC+ stained cells” value was 5.71%.
With B3 the “percentage of APC+ stained cells” value was 1.34%.
B4 was tested, and the “percentage of APC+ stained cells” value was 1.91%.
For B5, the “percentage of APC+ stained cells” value was 0.99%.
For B6, the “percentage of APC+ stained cells” value was 22.3%.
For B7, the “percentage of APC+ stained cells” value was 2.68%.
B8 was tested, and the “percentage of APC+ stained cells” value was 18.6%.

These binders were tested against T1, MUC1 on MUC1+ human cancer cell lines … (assay: flow cytometry, HPAF cells).
Protocol: as §1
B1 was tested, and the “percentage of APC+ stained cells” value was 51.5%.
With B2 the “percentage of APC+ stained cells” value was 42.1%.
For B3, the “percentage of APC+ stained cells” value was 2.99%.
In the case of B4, the “percentage of APC+ stained cells” value is reported as 4.36%.
With B5 the “percentage of APC+ stained cells” value was 2.6%.
B6 was tested, and the “percentage of APC+ stained cells” value was 6.81%.
In the case of B7, the “percentage of APC+ stained cells” value is reported as 5.93%.
In the case of B8, the “percentage of APC+ stained cells” value is reported as 5.71%.
